{"source": "patent US11827911B2", "about": "“Chimeric bacteriophage lysin with activity against Staphylococci bacteria” (priority 2008, dated 2023)", "key": {"MRSA strain MW2": {"tested_on": "MRSA strain MW2", "experiment": "Systemic MRSA infection model, survival", "format": "in vivo, FVB/NJ mice", "experimental": "In order to assess whether ClyS treatment could prevent death resulting from systemic MRSA infections, 4 week old FVB/NJ mice were intraperitoneally injected with ˜5×10^5 CFU of the community-acquired MRSA strain MW2 in 5% mucin. Preliminary experiments determined that 5×10^5 CFU was 10× the LD100 dose for a twenty-four hour period. Furthermore, within 3 hours of IP injection the MRSA infection was systemic. i.e., MRSA were recovered in high numbers from heart, liver, spleen, and kidney (data not shown). Treatment occurred three hours post-infection, with either 20 mM phosphate buffer or 1 mg of ClyS in 20 mM phosphate buffer injected IP (intraperitoneally). Mice were then monitored for survival over ten days. The results from three independent experiments were combined (ClyS treatment, n=16; buffer treatment, n=14) and the mice survival data plotted with a Kaplan Meier Survival curve (FIG. 12), Within twenty-four hours all of the control mice died of bacterial sepsis, while only 2/16 of ClyS treated mice died at forty-eight hours, and the remaining mice (14/16, 88%) survived over the course of the experiments (FIG. 12).\nTo determine if this effect could be seen in our systemic MRSA infection model, FVB/NJ mice were intraperitoneally injected with ˜5×10^5 CFUs of the MRSA strain MW2 as above. Three hours post infection mice were treated in parallel, with a lower IP dose of 130 μg/mouse of ClyS combined with different concentrations of oxacillin (10-100 μg/mouse) or buffer alone controls. Preliminary experiments determined that an ED30 dose of ClyS (130 μg/mouse) had minimal efficacy to evaluate the effect of combinatorial treatment with oxacillin (data not shown). Mice were monitored for survival for 10 days and the results of 5 independent experiments were combined and plotted in a Kaplan Meier Survival curve (FIG. 14)."}, "S. aureus 8325-4 cells": {"tested_on": "S. aureus 8325-4 cells", "experiment": "Spectrophotometric loss of turbidity (OD600) lytic assay", "format": "cell-based, Staphylococcus aureus", "experimental": "The unit activity of ClyS was defined by measuring the spectrophotometric loss of turbidity, indicative of cell lysis, of S. aureus 8325-4 cells upon adding serial dilutions of ClyS. In our assays, 5 micrograms of ClyS corresponded to 1 U of lytic activity. When 50 U of ClyS was added to exponentially growing 8325-4 cells the OD600 dropped to baseline within 5 min (FIG. 7). To confirm that the observed cell lysis corresponds to cell death, staphylococcal viability was determined by enumerating aliquots from the lytic reaction at various time points.\nClyS activity was measured as previously described (Daniel et al, 2001), with some modifications. Briefly, S. aureus strain 8325-4 was grown to an OD600 of 0.25-0.3, centrifuged, and resuspended in PB to a final OD600 of 0.8-1.0. Two-fold serial dilutions of purified ClyS […] were added to 100 μl of bacterial suspension in 96-well plates (Costar) and the decrease in OD600 was monitored by a Spectramax Plus 384 spectrophotometer (Molecular Devices) over 30 min at 37° C. ClyS activity in units per milliliter was defined as the reciprocal of the highest dilution of lysin that decreased the absorbance by 50% in 15 minutes."}, "S. simulans": {"tested_on": "S. simulans", "experiment": "Muralytic activity on bacterial strains, Set II", "format": "cell-based", "details": "50 U of ClyS, 15 minutes", "experimental": "(§1) Muralytic activity of ClyS was tested on a number of bacterial strains representing a variety of species which were divided into sets (Table 1 and FIG. 10). Set I consisted of S. aureus strains including methicillin-sensitive S. aureus (MSSA) and MRSA. ClyS was active against MSSA and MRSA although differences were observed between S. aureus strains. Set II consisted of different species of staphylococci including S. epidermidis, S. simulans and S. sciuri. […] Set III consisted of a mix of Gram-positive and Gram-negative bacteria including representatives of group A, B, C and E streptococci, oral streptococcal species including S. gordonli, and S. salivarius, as well as S. uberis, Bacillus cereus, Pseudomonas aeruginosa and E. coli.\n(§2) The viability assay of ClyS was tested as previously described (Nelson et al, 2001). Briefly, log phase cultures of S. aureus strain 8325-4 were resuspended in PB to OD600 of 0.8-1.0. 50 U of ClyS or the corresponding volume of PB was added to bacterial cells and aliquots were removed, serially diluted, and plated at 1, 5, 10, 30, and 60 minutes to assess the viability of the treated and control cells. All experiments were performed in triplicate. The activity of ClyS on various bacterial strains was tested as described previously (Schuch et al, 2002). Briefly, log phase bacterial cells were treated with 50 U of ClyS at 37° C. for 15 minutes. The samples were serially diluted and plated. Control experiments with the addition of phosphate buffer (pH 7.0) were performed under the same conditions."}, "S. sciuri": {"tested_on": "S. sciuri", "experiment": "Muralytic activity on bacterial strains, Set II", "format": "cell-based", "details": "50 U of ClyS, 15 minutes", "experimental": "as §1, §2"}, "[1]": {"tested_on": "S. epidermidis including the biofilm-forming strain RP62A", "experiment": "Muralytic activity on bacterial strains, Set II", "format": "cell-based", "details": "50 U of ClyS, 15 minutes", "experimental": "as §1, §2"}, "MRSA (191-SM^R)": {"tested_on": "MRSA (191-SM^R)", "experiment": "In vivo nasal decolonization of MRSA", "design": "species or system C57BL/6J mice", "details": "three hourly intranasal doses of ClyS (960 μg) 24 h post-infection; 1 h after last treatment; p<0.001 vs buffer", "excerpt": "Carriage of both MSSA and MRSA in the human anterior nares is the major reservoir for S. aureus infection. Studies have shown that roughly 80% of the population could be nasally colonized by S. aureus, and that colonization can be an increased risk factor for developing other more serious S. aureus infections (Kluytmans, J., A. van Belkum. 1997. Nasal carriage of Staphylococcus aureus: epidemiology, underlying mechanisms, and associated risks. Clin Microbiol Rev 10(3): 505-20). Elimination of nasal carriage in the community or in the hospital setting thus could possibly reduce the risk of infection and slow the spread of drug resistant S. aureus (Kluytmans et al. (1997)). To study the potential of ClyS to reduce MRSA colonization of the nasal mucosa, C57BL/6J mice were intranasally inoculated with ˜2×10^7 of a spontaneously streptomycin resistant strain of MRSA (191-SM^R). Twenty-four hours post-infection mice were administered three doses hourly of either phosphate buffered saline (control) or ClyS (960 μg) into the nasal passages. One hour after the last treatment, mice were sacrificed and bacteria colonies were enumerated on Spectra MRSA agar, (a selective chromogenic medium developed to diagnostically detect MRSA nasal colonization) and Columbia blood agar. […]"}}, "data": [{"molecule": "ClyS: chimeric lysin: Twort lysin endopeptidase domain attached to the phiNM3 CWT domain, 280 amino acid residues (protein, Chimeric of Staphylococcus aureus bacteriophage Twort domain and Staphylococcus aureus phage phiNM3 CWT domain, chimeric lysin: Twort lysin endopeptidase domain attached to the phiNM3 CWT domain, 280 amino acid residues) METLKQAESYIKSKVNTGTDFDGLYGYQCMDLAVDYIYHVTDGKIRMWGNAKDAINNSFGGTATVYKNYPAFRPKYGDVVVWTTGNFATYGHIAIVTNPDPYGDLQYVTVLEQNWNGNGIYKTELATIRTHDYTGITHFIRPNFATESSVKKKDTKKKPKPSNRDGLNKDKIVYDRTNINYNMVLQGKSASKITVGSKAPYNLKWSKGAYFNAKIDGLGATSATRYGDNRTNYRFDVGQAVYAPGTLIYVFEIIDGWCRIYWNNHNEWIWHERLIVKEVF", "values": [{"measurement": "survival", "setting": "MRSA strain MW2; 130 μg/mouse of ClyS IP alone, 10 days", "value": 30, "unit": "%"}, {"measurement": "mice died at forty-eight hours", "setting": "MRSA strain MW2; 1 mg of ClyS IP three hours post-infection", "value": "2/16"}, {"measurement": "survival over the course of the experiments", "setting": "MRSA strain MW2; 1 mg of ClyS IP three hours post-infection, ten days", "value": 88, "unit": "%"}, {"measurement": "ED30 dose", "setting": "MRSA strain MW2; IP, preliminary experiments", "value": 130, "unit": "μg/mouse"}, {"measurement": "time for OD600 to drop to baseline", "setting": "S. aureus 8325-4 cells; 50 U of ClyS, exponentially growing 8325-4 cells", "value": "≤ 5", "unit": "min"}, {"measurement": "amount corresponding to 1 U of lytic activity", "setting": "S. aureus 8325-4 cells; unit = reciprocal of highest dilution that decreased absorbance by 50% in 15 minutes", "value": 5, "unit": "micrograms"}, {"measurement": "muralytic activity against S. simulans", "setting": "S. simulans", "value": "active"}, {"measurement": "muralytic activity against S. sciuri", "setting": "S. sciuri", "value": "active"}, {"measurement": "muralytic activity against S. epidermidis", "setting": "[1]", "value": "active"}, {"measurement": "mean CFU on the nasal mucosa", "setting": "MRSA (191-SM^R)", "value": 1198, "unit": "CFU/cavity"}]}]}
